In the RNAGym collection of RNA variant scans (doi:10.1073/pnas.2313332121):

B1: TPR t1 (parent)
chain: GACCAAUCUGCCCUCAGAGCUCGAGAACAUCUUCGGAUGCAGAGGAGGCAGGCUUCGGUGGCGCGAUAGCGCCAACGUCCUCAACCUCCAAUGCAUCCCACCACAUGAUGAUGCCUGAAGAGCCUUGGUUUUUUG

Variants of: B1
Experiment: polymerase ribozyme fitness, log enrichment relative to wild type (log ratio); higher = more active; in vitro selection for triplet polymerase activity
Procedure, shortened: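 Fitness measures genotype enrichment against wild-type enrichment on a logarithmic scale, with inverse-variance-weighted averaging of replicates. The logarithm is base 2, and genotypes were kept only with ≥10 input reads and ≥1 read per output in Illumina sequencing. The sequenced libraries came from one triplicate in vitro selection round, including frozen incubation at −7 °C, of PCR-built, transcribed mutant libraries of each subunit of a heterodimeric triplet polymerase ribozyme.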

Row | Variant | polymerase ribozyme fitness (log ratio)
1 | C31G C124A U129G | -6.34
2 | C31G G42C A111U | -6.49
3 | U32C G71U U129A | -1.48
4 | U32C G71U G110A C123U U131G | -4.9
5 | C34A A41U G60C C99U C104A U116C U125A | -7.43
6 | U32A G44A G63C U87C | -4.85
7 | U32C C72A C101U U112A C123G | -3.08
8 | C34A G60C C97A C115G | -5.15
9 | C31U G44C G60A | -5.87
10 | U32C G60U U87C C101G | -5.05
11 | C31U C49G | -4.41
12 | U32C G39U C56U G58C | -0.298
13 | C34A A37C A118G | -2.59
14 | C34A G110U A118U | -6.14
15 | C34A G57A C72U G93A | -5.18
16 | C34A C89U U112A U133A | -1.77
17 | U32C C56A U116G G122A U132C | -3.25
18 | C31U G120U | -4.56
19 | U32C C73U G117U | -2.41
20 | U33C G61A U116C C124G | -5.41
21 | C34A G39U C98A | -3.78
22 | U33G A37U C49A C115U U131G | -6.12
23 | C31G C34U U109G G110C | -6.14
24 | U33C G120U | -4.63

Row | Variant | polymerase ribozyme fitness (log ratio)
25 | U33A C97A C123G | -4.21
26 | U33A C56G G71U G93U C99U G110U G127C | -6.53
27 | C34A | -2.52
28 | C34A A50G G93A | -3.46
29 | U33C C101A A121U | -4.76
30 | C34A A103C | -4.26
31 | C31G G58U G61A C62G A83U U109A C124U | -6.38
32 | U32C A46U | -1.51
33 | C31U A46G C49A G60A A105C G110A | -5.83
34 | U32G G122A | -7.09
35 | C34A G36C G45C U112G | -5.74
36 | U32A A50G C85U U87A | -4.8
37 | U33G C82A | -5.59
38 | U33C U133G | -5.56
39 | U32A G48C | -5.23
40 | U32A G58A C94A | -5.83
41 | U32C G63U G69A | -4.13
42 | U32C C49G C73G C88G A95C | -5.8
43 | C31G G61U | -6.02
44 | C34A G110A | -5.44
45 | U33A G69A C79A A121G | -6.8
46 | U33A C49U C73U | -5.84
47 | U33C G63A U78C C80A C99A C102A U116G | -6.04
48 | U33G G48U A105C U126G G127C | -6.34

Row | Variant | polymerase ribozyme fitness (log ratio)
49 | C31U G51A C73U U106A | -3.91
50 | U32G C56G | -6.87
51 | U33A C62U | -5.03
52 | U32C G47A G51A | -4.87
53 | C31U U112A | -3.16
54 | C34A A50U A83G | -4.58
55 | C31G G45C C64G G113U | -5.01
56 | U32C C49U | -0.805
57 | C31U C73G | -4.48
58 | C34A A41U G61C G120U | -6.86
59 | C34A A37G C53U U78G | -2.19
60 | C31U G60A G107A | -1.03
61 | C34A G44U G71A C114A | -6.89
62 | C31U U87C G113U C123G U132A | -5.61
63 | C31U G71U | -4.09
64 | U33A G44C G57U A121G | -4.61
65 | U33A G48C | -5.1
66 | U32C G60C A75C C79G A118U G135U | -2.26
67 | U33A A119G G120A | -3.37
68 | U32C G45A G63C C114U | -2.97
69 | C31G U55C G60A U116C | -6.66
70 | U32C G77U U126G | -2.53
71 | U33C A121C | -2.95
72 | C31G G69U A91G G120A U129A | -6.61

Row | Variant | polymerase ribozyme fitness (log ratio)
73 | U32C G42C U54G C94A | -2.1
74 | C31U G48A | -5.2
75 | C31U C53G C124A | -3.5
76 | U33C G61U | -3.04
77 | U33C G61C | -5.84
78 | U32C C56U G60A C88A | -5.77
79 | C31U U32A G47C G61C G63A C115U | -7.14
80 | U32C A84U C123G U131C | 1.03
81 | U32C U106G U112G | -0.955
82 | U32C U78C A100C | -2.28
83 | C34A C72A C73A C97U | -3.88
84 | C34A C114A | -4.47
85 | U32C G36A G60U | -2.12
86 | U33A C72A U78C U87A | -5.41
87 | U32A C49G C123U | -4.37
88 | C31U U38C | -5.6
89 | C34A C94A | -4.19
90 | C34A C53U C98A | -1.98
91 | C34A C72G | -3.33
92 | U33C G63U A111U A121C C124A | -6.83
93 | U33A A68U | -7.2
94 | U32C G36A C64A A111G | -5.64
95 | C34A G44C G60U A121G | -2.34
96 | C34A A83C | -3.65

Row | Variant | polymerase ribozyme fitness (log ratio)
97 | C34A G47U G61A C86U U130A | -3.42
98 | C31U C104U | -4.18
99 | U33G C94G G113A | -5.56
100 | C34A C73A C85U U130A | -4.99
101 | U32C C34U G39C | -5.23
102 | C31U U129G | -5.03
103 | C31G C53G A90U G113A | -6.88
104 | U33A C97U | -5.53
105 | C34A C85U A118U U130A U132C | -3.6
106 | C31U G60A G71A U78G C101U G110U U125A | -6.74
107 | U33C C56A | -4.11
108 | U33A G48C G113C | -5.71
109 | C34A C73G | -2.27
110 | U32A G44A U87C | -5.32
111 | C31U A84C C97A A121U | -6.87
112 | U33G C73G G93U A121G | -5.53
113 | C31G C73A | -6.15
114 | U32C G113U C123U | -3.78
115 | C31U A68U C114A G117C C124A | -5.73
116 | C34A A37U G48U C64G A68G C94G G120U | -7.45
117 | U32C U81A A90G U112A G113A | -1.38
118 | C34A G42C A121C | -4.79
119 | C31U A37U C49G A84U C104U G113U U133G | -6.55
120 | U32C G57U G110A | -2

Row | Variant | polymerase ribozyme fitness (log ratio)
121 | U32C G47A | -1.18
122 | U33G C49G G58C A121C | -6.04
123 | U32G G60A | -7.06
124 | C34A C53A G61C | -5.6
125 | U32C G35U A108G A121G | -7.39
126 | C34A G58C G63U | -4.79
127 | C34A G45A C86A | -5.49
128 | U32C C56A | -1.29
129 | U32A C88A C89A A119G | -4.6
130 | U33C A46G C88U A121U | -6.28
131 | U33C A43U | -5.07
132 | U33G G36A A111U | -7.33
133 | C31U C123G | -2.99
134 | C34A G58A C89U A121G | -2.92
135 | C31U U38A A68C C72U C76G U112A G117C | -6.6
136 | U33A G57U | -4.65
137 | C31G C56U G61A G69A U87G C123G | -7.19
138 | C31G U38G G51U G52C C94G G120U | -6.47
139 | U33A G48U G69U C97G | -3.18
140 | C31U G63A C85U C124G | -4.75
141 | C34A G69U G135U | -0.532
142 | C31G C72G | -6.27
143 | U33G C49G C53G G61U | -7.57
144 | U33A C86U | -4.21

Row | Variant | polymerase ribozyme fitness (log ratio)
145 | C31G G42U G113U | -5.66
146 | U32C G52U U81G | -4.15
147 | U33A U81A C102G G110C C115G | -6.08
148 | C34A G93C | -3.62
149 | C34A G93A | -2.95
150 | U32A C88U | -3.8
151 | C31U A111G | -5.05
152 | C31G G36U C49U U112G | -6.99
153 | U32C G48U C101U A118G | -3.71
154 | C34A A43U G61A C88U A119G A121C | -4.91
155 | U32G G69U | -4.52
156 | C31U G60A G61A C123G | -6.05
157 | C31G C72U A95C G113A | -6.94
158 | U33A G63U | -6.72
159 | U33G C79G | -6.57
160 | C31U C40U G61U G120A | -4.29
161 | C31U G39C G44U C85G G110C | -6.47
162 | U32C U78C C89A | -1.52
163 | C34A G60C | -3.4
164 | C34A C73G U106A | -4.25
165 | C31U C73G C89U | -5.24
166 | U33A A84U C97U | -4.91
167 | C34A G63U G120A | -4.37
